Marks after values point to notes of the source that are not given here.

The Kd is a measure of binding affinity in units of concentration.

Data set [1] concerns the target cynomolgus monkey beta-Klotho. Put plainly: SPR binding affinity and kinetics to cynomolgus monkey beta-Klotho (Biacore 8K, anti-human Fc capture). Set-up: species or system Cynomolgus monkey (Macaca fascicularis). The note with it: 1:1 binding model, read-out: KD monkey KLB. The procedure: Binding affinity and kinetics were measured on a Biacore 8K instrument (GE Healthcare). For the affinity capture of the diluted mAb sample, an anti-human Fc antibody (human antibody capture kit, GE Healthcare) was immobilized on all eight channels of a series S CM5 sensor chip (GE Healthcare) to approximately 10.000 RU. The anti-beta-Klotho antibodies were diluted into HBS-EP+ assay buffer (GE Healthcare) to 0.04 μg/mL. The antibodies were injected in the sample compartment, whereas the reference compartment was used without captured antibody. […] For the antigen inject the flow rate was adjusted to 60 μL/min with an association time of 180 sec and a dissociation time of 1800 sec. The maximum binding signal of beta-Klotho was in the range of 30 RU. At the end of each cycle an inject of regeneration solution, supplied with human antibody capture kit (GE Healthcare), supplemented with 10% non-specific binding reducer (GE Healthcare), for 1 min at 30 μL/min to remove antibody and antigen was performed. Binding kinetics data were evaluated with a 1:1 binding model using the Biacore 8K Evaluation Software version 1.1.1.7442 (GE Healthcare).
For interaction analysis with human beta-klotho, mAbs were captured via an anti-human Fc antibody immobilized on a series S CM5 sensor chip (human antibody capture kit, GE Healthcare). […] Binding kinetics data were evaluated with a 1:1 binding model using the Biacore 8K Evaluation Software version 1.1.1.7442 (GE Healthcare). For interaction analysis with Cynomolgus monkey beta-klotho, mAbs were captured via an anti-human Fc antibody immobilized on a series S CM5 sensor chip (human antibody capture kit, GE Healthcare). […] Binding kinetics data were evaluated with a 1:1 binding model using the Biacore 8K Evaluation Software version 1.1.1.7442 (GE Healthcare). Exemplary sensorgrams for the interaction are shown in FIG. 7 (human KLB) and 8 (monkey KLB), as well as in Table G.

The target of a further data set is T1, human beta-Klotho (Homo sapiens, UniProt Q86Z14).
T1 sequence (Q86Z14 1-1044): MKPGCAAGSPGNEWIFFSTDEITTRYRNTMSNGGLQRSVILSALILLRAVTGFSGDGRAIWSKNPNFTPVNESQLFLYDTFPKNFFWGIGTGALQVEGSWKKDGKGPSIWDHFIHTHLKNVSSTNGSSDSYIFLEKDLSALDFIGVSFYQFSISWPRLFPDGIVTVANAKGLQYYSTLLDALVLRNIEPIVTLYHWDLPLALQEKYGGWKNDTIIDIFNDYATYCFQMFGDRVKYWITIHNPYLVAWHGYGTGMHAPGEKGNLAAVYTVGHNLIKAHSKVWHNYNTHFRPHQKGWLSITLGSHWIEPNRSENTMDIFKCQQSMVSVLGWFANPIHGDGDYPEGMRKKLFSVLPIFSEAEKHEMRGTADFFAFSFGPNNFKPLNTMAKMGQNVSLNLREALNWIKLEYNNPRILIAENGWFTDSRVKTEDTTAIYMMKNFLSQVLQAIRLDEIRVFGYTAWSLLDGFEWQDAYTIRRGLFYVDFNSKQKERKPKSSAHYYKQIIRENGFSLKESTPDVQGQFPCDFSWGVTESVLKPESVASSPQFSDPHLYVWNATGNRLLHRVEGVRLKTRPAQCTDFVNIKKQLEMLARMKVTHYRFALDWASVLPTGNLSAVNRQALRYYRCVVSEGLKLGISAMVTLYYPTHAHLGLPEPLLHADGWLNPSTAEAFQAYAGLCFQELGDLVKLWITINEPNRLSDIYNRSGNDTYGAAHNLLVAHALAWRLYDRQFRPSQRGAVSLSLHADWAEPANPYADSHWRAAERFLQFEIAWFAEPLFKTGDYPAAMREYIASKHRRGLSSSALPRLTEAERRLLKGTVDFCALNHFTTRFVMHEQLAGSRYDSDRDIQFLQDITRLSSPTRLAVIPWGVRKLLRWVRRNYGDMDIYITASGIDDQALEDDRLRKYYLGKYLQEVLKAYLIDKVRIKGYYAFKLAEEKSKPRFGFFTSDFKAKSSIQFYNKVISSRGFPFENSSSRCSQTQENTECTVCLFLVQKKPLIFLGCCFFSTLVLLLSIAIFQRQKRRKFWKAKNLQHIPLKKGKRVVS
Nature of the data set: SPR analysis of the active fraction of stressed antibodies. In kind it is binding. The note with it: 21 days. As to the method:
Analysis of the active fraction of stressed antibodies was performed by SPR using the same Fc capture assay set up as described above for the affinity determination. In this case the association and dissociation times for human beta-Klotho were set to 240 sec and 300 sec, respectively. The active fraction of the samples was calculated as the ratio of binding signal for human beta-Klotho and the Fc capture signal of the antibody, normalized to the active fraction of the unstressed control samples. Mean values from three experiments were calculated.
(Surface plasmon resonance follows binding to a sensor surface in real time, without labels.)

The nature of data set [2]: Capillary isoelectric focusing (cIEF). The data set is classed as physicochemical. As to the method: Charge heterogeneity of the antibody samples was determined by capillary isoelectric focusing (cIEF) using a Maurice C device (Protein Simple). The samples were prepared by the cIEF protocol given by the manufacturer with an ampholyte mix 3-10 (Protein Simple) and peptide pl markers of 5.85 and 9.0 (Protein Simple). cIEF runs were analyzed using Compass Software v2.1.0 (Protein Simple).

The nature of data set [3]: In vivo PK in transgenic humanized FcRn mice (Tg32). The note with it: 0.3 mg/kg single IV, plasma, compartment model. As to the method: In vivo PK studies were conducted in transgenic humanized FcRn mice (Tg32). For these studies, no GLP compliance was claimed.

Consider “Ab0335: IgG4 PE; 16H7 VL (N25S, D49S, D50A, D91E, N93E); 16H7 VH (M34V, I83T, D109E); HC SEQ ID NO: 39, LC SEQ ID NO: 46”, for which the equilibrium dissociation constant (Kd) in data set [1] was 2.95 nM. Also, the “SPR rel. active fraction” value with human beta-Klotho (pH 5, 40° C.) is given as 93%; with human beta-Klotho (pH 6, 40° C.) it was 92%; in the data set with human beta-Klotho (pH 8, 40° C.) it was 73%. The “Charge homogeneity cIEF % main peak” value in data set [2] was determined as 71.4%. Further, the “Charge homogeneity cIEF Number of peaks” value in data set [2] was found to be 4. For the same substance, in data set [2], the “Charge homogeneity cIEF pI” value was found to be 7.1. The “cIEF % Main peak” value in data set [2] (pH 5, 40° C., d 21) stood at 59%; in data set [2] (pH 5, d 0) it was 70%; in data set [2] (pH 6, 40° C., d 21), 59%; in data set [2] (pH 6, d 0) it was 71%; in data set [2] (pH 8, 40° C., d 21) it was 12%; in data set [2] (pH 8, d 0), 68%. Besides, the “cIEF Number of peaks” value in data set [2] (pH 5, 40° C., d 21) worked out at 4; in data set [2] (pH 5, d 0), 5; in data set [2] (pH 6, 40° C., d 21), 4; in data set [2] (pH 6, d 0) it was 4; in data set [2] (pH 8, 40° C., d 21), 5; in data set [2] (pH 8, d 0), 5. The “t½ calculated with compartment model” value in data set [3] was 300* h.
